From publication doi:10.1101/2020.11.10.376558

Tested on: GST-N571 (CIZ1 N-terminal fragment with PLD1 and PLD2) (Mus musculus)
Test: EMSA

Substance	K half [nM]
Xist repeat A sense	200
Xist repeat E proximal (sense)	100
